Legend:
Assay in all cases: flow cytometry on cells
[1] = biological target: PIGQ peptide … on HLA-A*02:01 of peptide-pulsed T2 cells (Homo sapiens, HLA-A*02:01 (T2 cells))
[2] = biological target: MED13L peptide … on HLA-A*02:01 of peptide-pulsed T2 cells (Homo sapiens, HLA-A*02:01 (T2 cells))
[3] = biological target: RMF peptide on HLA-A*02 of peptide-pulsed T2 cells (Homo sapiens, HLA-A*02:01, strain)

Measured: binding result

B1: ESK1 full-length human IgG1 antibody (antibody, V domains shown)
VH: QMQLVQSGAEVKEPGESLRISCKGSGYSFTNFWISWVRQMPGKGLEWMGRVDPGYSYSTYSPSFQGHVTISADKSTSTAYLQWNSLKASDTAMYYCARVQYSGYYDWFDPWGQGTLVTVSS
VL: not shown
binds: [1] | [2] | [3]

From paper PMC4738012 (Journal of molecular biology, 2015)
